experiment: soluble on expression in E. coli; label from the status in PepcDB or PDB records

Row | Sequence | soluble on expression in E. coli
1 | MEDILMPEGEKVSMENFALLRVLGKGAYGKVFLVRKVGGKDHNTIYAMKVLRKTRVLTKQKTLEHTMAERQVLERLRGTPFLVNLFYAFQTDTKLHIVMEYVRGGELFTHLCSRGHFDLEAARFVIAELVVAIDSLHQRKVIYRDLKLENILLDEEGHVKLTDFGLSKLFLPGELDRANSYCGTIEYMSPEVINRPEGGYSDVVDWWSLGVISFELLTGCSPFTVDGAQNSSKDIAKRIMTKKVPFPKTMDVDARDFIGQLLEKKLEKRLGYNGVDEIKNHKFMSSIDWDAAVKRTLKPVIVPRIGHDLDTQFFSAEFTSQPPLYSPAESPLNANTLFRGYSYVSPSVIFANDNVIGEELMAEDVNALLASSSFFAKYKLDKSDAGLLGKGAFSVVRRCERVVDGAQFAVKIVSQKFASQAQREARILEMVQGHPNIVQLHDVHSDPLHFYLVMEILTGNELLERIRKLERFTESEAADIMRQLVSAVKYLHDKRIVHRDLKPENILFESIDSSARLRLVDFGFARLLPNSMEQQLKSVQVLRKMTPCFTLQYAAPEVLDVGDSQPEYNEQCDLWSLGVVLFTMLSGQVPFHARSRQESATEIMQRICRAEFSFTGDAWTNVSADAKNLITGLLTVDPKKRLSMQELTAHMWLKSSASMDTPLQTPSILPSSADETFNETLRAFLHANRDGFHLLDVAAAPLMKRRGIKRQSGDKDASGNSKNSRVTQFECLPEEQEAEMTSSTSRPSNLGMMNYREPNSGTIRETRGSDSS | not soluble
2 | MEDRREALISKLMNMLVENGFSVSGTGFQPVATFDIVARRDVERYILKVLYNIDTLKQSTAYQLIKLAKLLRATAAIIGERTGNGQLEDGVVYYRHGVPISSVNTFESYLNGERPYIYSGPGGFYVRINGELLRERRNELNLSIGNISSYLGVSRRSVSLYENGSAATIDIFIRLRNILKADIVDHIDLFRINSTEINFEEKISDEYIARIIWLLQKYGLDTRPIFKVPFDIVAKDSDEISLIAALIGDAPEPERVRILKKISDVFEDDAFLVSKSNTYRESIGGCAVLTISDLESIEDKDALIGKIEKRAK | not soluble
3 | MEEAKNPWLTGNLVEEANSQGIIQNRSIFNLFANTNIYIFFRHWTTIYERLLEIKQMNERVTKEINTRSTVTFAKDLDLLSSQLSEMGLDFVGEDAYKQVLRLSRRLINGDLEHQWFEESLRQAYNNKAFKLYTIDKVTQSLVKHAHTLMTDA | not soluble
4 | MEEIILVFPKEELEVRAMEFKKEFLDCGERIINGSFKLDYVDDYAEWLKIIRNNLKKETVNPKWVVSTTFFAVRKSDNKIIGIVNLRHYLNDFYKNSGHIGYSVRPSERRKGYASEILRQILEYAREKGLTEVCVVCKKENEASRKTILKNGGILSRTFKDEGEEHEAFYINTKKH | not soluble
5 | MEEKFTPEEQAIYDEHFASDRPVELVEPEQVREAFNAEESSQQPSVEPLQEQPNSGVIEQERQARQKAEQKAMEARELAIEFAQKYAQMQEEAVRRRDENIPTLEDDPKAHVAWLSHKVQEQQKLLDEFSRIRESQERLNQEEYERQKLGDYFEEAKAQVQDKYPDLDSITDYLYERADSVLQAQADLYPQWKDPAARQQQIGAELRQICQQCQKAGINPIEVLVQKAKAFGYSGAPIKDEVETLQERSQAARTLTARGGQVPTGGMDMRTLFSMPDAEFAVWVEKNPEKFEQIMSRT | not soluble
6 | MEEKLVTLAILTYTKAQILKNVLENEGIETYIHNVNQIQPVVSSGVRLRIKESDLPRALKITESSAWLAESIVGEKTPKVEHRTKKVLIPVDFSNYSMKACEFGFNFAKSFDAEVILLHVYFTPIYASSLPYGDVFNYQISDEETVKNVLHKVHDDLNTLSEKIKQKVASGEFPDVKYTCVLREGIPEEEILRYNKEHRPRIIIMGTRGKNQKDIDLIGSVTAEIIERSHTTVLAIPENTPFNRFNEVKRIAFMTNFDQRDLIAFDSFINGLSPFHFSVSLIHLSDVKDTWNEIKLAGIKDYFQKQYPDLEIHYDVVMSNDFLNSLDNYIKTNQIDIITLTSYKRNIFSRLFNPGIARKMIFHSDTPLLVING | not soluble
7 | MEELKELRKEIDRIDEEILRLLNERAKLAKRIGEIKSKANLPIHVPEREREIFEKILRLNKEVYGGVFPQEALVHIYREIISACLSLEKKIKVAYLGPKATFTHQAALEFFGFSAHYTPCSTIRDVFVEVETKRADYGVVPVENTIEGVVNYTLDMFLESDVKIAGEIVIPITLHLLSASDSIENVEKVYSHKMALAQCRSWLEKNLPSVQVIEVESTAKACEIALEDERAGAVASEVAAYTYHLNILARNIQDSGDNFTRFLVIAKRDLKPTGSDKTSILFGVKDEPGALYKALEVFYKHGINLTKIESRPSKKKAWDYVFFVDLEGHKEEERVEKALKELKEKTQFLKVLGSYPKALLQE | soluble
8 | MEENTEQRVDLTLFSEKIQELKDQIASVIVGQEQTVDLVLAAILANGHVLIEGVPGVAKTLLARLTARLIDADFSRIQFTPDLMPSDVLGTTVFNMKTNDFDFHQGPIFADIVLVDEINRAPAKTQAALFEVMEERQISIDGITHKMGELYTILATQNPVEQEGTYKLPEAQLDRFLMKITMDYPSLEEEVDILERHHTNASLIKLDDIKPAITKEELLSLRAFMNQVFVDRTLLQYIALIVQQTRTSKAVYLGASPRASVAMLQASKAYALLQGRDFVTPEDIKFVAPYVLQHRLILTAEAEMEGYSPVKVTQRLIDKVEVPKLEHHHHHH | soluble
9 | MEESDQTVLLPNVENEIGSFYHDMPDEKLLRHIKAIFDEASLRPSLTKNVPSTSSQVTEELNKVEIRDPKHEMQDEQYLSIFENPSGVQYNQADGSFSWNNRFHSDNSVQYINVLNNYGCEGADTLLNQSDSSDETDESIEERRTPRGNRQSRSNLTSKPSAKYWTKRGGDPIVNCSCSICGSKFSTIRCLLDHRHQEHSLKDMMMCGLCGKEFSKRTHIYLHLSQEYKVYHCDGCNTSFASKWHLEKHRCKENETIDDKKRRRTGRVNAEEIKVIKEEIQDEEFGGVVLSNENHEKSKEDRFQFACVLCGKKYQHYHWLLKHRTKCLETTDEIQEFKCNVCYRRYNSSFWFERHMEKCNSSTALPPALLDQTISCPNCHKKYQNEYWFDYHKKHCPDITPALSDVHLDVNSLRDRRPREGEISVVPDVNLFGIEPEREDDNDDDEDADATISSSSSSTGNLVNIPCSICGKFCVGVASLLHHRKQIHGLTAMLTCGVCTKKFNTLSSIRRHMSMEYSIFRCQQCGRNCIDRTTLDRHECFKPYKIRDKRLFNIQNISVLKCPDCRATFANLNVLSEHRKTCQYGNVFDNIQQPGSSSLRQHHRSDTNGAALQRKITSRVRLDSNTPEKWTCRDCHASFHNLQALCSHRHESHGKEMFQCNNCSETLPNYRALHDHNMMHCRNNRSTNETTTRRYSEEDINYDYMDNVQIFVVEESEIFIPIQPHFSRK | not soluble
10 | MEETRPIDGLTDEDIREILTRYKKIALVGASPKPERDANIVMKYLLEHGYDVYPVNPKYEEVLGRKCYPSVLDIPDKIEVVDLFVKPKLTMEYVEQAIKKGAKVVWFQYNTYNREASKKADEAGLIIVANRCMMREHERLLGEK | soluble
11 | MEEVIWEQYTVTLQKDSKRGFGIAVSGGRDNPHFENGETSIVISDVLPGGPADGLLQENDRVVMVNGTPMEDVLHSFAVQQLRKSGKIAAIVVKRPRKVQVAPLQGSPPLSHDDRGFEVIEEFDGRSFRSGYSERSRHSSHDMLSHSWEGNRERGRPHQRTQSRERERSRGRSLERGLDQEDYGRSRERSRGRSLERGLDRDFVSRDHSRGRSIDRDYDRDYERSYHEAYEPDYGGGYSPSYDRRAHPETRYERSRSREHLRSRSPSPESRSRHEHKGQHDPDRPIGVLLTKSKANEEYGLRLGSQIFIKEMTRTGLATKDGNLHEGDIILKINGTVTENMSLTDARKLIEKSRGKLQLVVLRDSKQTLINIPALNDSDSEVEDISEIESNRSFSPEERRQQYSDQDYHSSTEKLKERPSSREETSGRLSRMGATPTPFKSTGDITAAGVTEASREPRYQEEGPVPQPRTAPRVFLRPSPEDEAIYGPNTKMVRFKKGDSVGLRLAGGNDVGIFVAGIQEGTSAEQEGLQEGDQILKVNTQGFRGLVREDAVLYLLEIPKGETVTILAQSRADVYRDILACGRGDSFFIRSHFECEKETPQSLAFTRGEVFRVVDTLYDGKLGHWLAVRIGNELEKGLIPNKSRAEQMASVQNAQRENAGDRADFWRMRGQRSSGGVKKNLRKSREDLAAAVSVSTKFPAYEKVLLREAGFKRPVVLFGPIADIAMERSTELPDLFQTAKTEPKDAGSEKSSGVVRLNTVRQIIEQDKHALLDVTPKAVDLLNYTQWFPIVIFFNPDSRQGVKTIRQRLSPTSNKSSRKLFDQANKLKKTCSHLFTATINVNSANDGWFGSLKDSIQQQQNEAVWVSEGKMEGMDDDAEDRMSYLTAMGADYLSCDSRLISDFEDTDGEGGAYTDNELEEPAEEPLVSSITRSSEPVQHEENIRKSSPEPRAQMRRAASRDQLRELARPQPSSQSRPKARSQNREDSFDYSKSNLPATAGSEIPGGSTKGYPPPIAAKPAFGRPILKPSTPVPMPESEEVGESTEEQEDAPRSVLGRVKIFEKMDHKAKLQRMQELQEAQNARIEIAQKHPDIYAVPIKAPKPDAGLPPHMSSGPPEPQKAPSRLYQDTRGSYGSDPEEEEYRQQLAAHSKRGYYSQPSRYRDTEL | soluble
12 | MEEVMALSEPEQNTWINRPEYSEVSEDRIVIVSDANTDFWENTYYDFSHYTGHVYGKETESDFTFQVRVKADFSALYDQAGIFIGGTETAWIKAGIEFNDGQPSIGCVVTNNNSDWSTGLFPGNPGDFWMRVTSKSDVIRIQYSIDGKNWPLLRLCTWPGTRKRFIGVMCCSPKRKGLSAEFTEILLTTPLDSDLHDLSLEHHHHHH | soluble
13 | MEFIMKTRMFEEEGWIRKKCKVCGKPFWTLDPDRETCGDPPCDEYQFIGKPGIPRKYTLDEMREKFLRFFEKHEIYPHGRVKRYPVLPRWRDDVLLVGASIMDFQPWVISGEADPPANPLVISQPSIRFTDIDNVGITGRHFTIFEMMAHHAFNYPGKPIYWMDETVELAFEFFTKELKMKPEDITFKENPWAGGGNAGPAFEVLYRGLEVATLVFMQYKKAPENAPQDQVVVIKGEKYIPMETKVVDTGYGLERLVWMSQGTPTAYDAVLGYVVEPLKKMAGIEKIDEKILMENSRLAGMFDIEDLGDLRYLREQVAKRVGITVEELEKAIRPYELIYAIADHTKALTFMLADGVVPSNVKAGYLARLLIRKSIRHLRELGLEVPLSEIVALHIKELHKTFPEFKEMEDIILEMIELEEKKYAETLRRGSDLVRREIAKLKKKGIKEIPVEKLVTFYESHGLTPEIVKEIAEKEGVKVNIPDNFYSMVAKEAERTKEEKGEELVDFELLKDLPDTRRLYYEDPFMKEFDAKVLRVIKDWVILDATAFYPEGGGQPYDTGVLIVNGREVKVTNVQKVGKVIIHKVEDPGAFKEGMIVHGKIDWKRRIQHMRHHTGTHVLMGALVRVLGRHVWQAGSQLTTDWARLDISHYKRISEEELKEIEMLANRIVMEDRKVTWEWLPRTTAEQKYGFRLYQGGVVPGREIRVVKIEDWDVQACGGTHLPSTGLVGPIKILRTERIQDGVERIIFACGE | soluble
14 | MEFKVGDTVVYPHHGAAVIEAIEHREMGGETLEYLVLQINQSDLVVRVPSKNAELVGVRDVVDDDGLQKVFGFLRETDVEEAGNWSRRFKANQERLASGDVNKVAEVVRDLWRRDQGKGLSAGEKRMLAKARQVLVGELALAENKDEKQTEEILAQVDATIERHRAENKGIEETKVEPLGDIDLDDLNFDDED | not soluble
15 | MEFMMEIQGNRKELMVSKIKNGTVIDHIPAGRAFAVLNVLGIKGHEGFRIALVINVDSKKMGKKDIVKIEDKEISDTEANLITLIAPTATINIVREYEVVKKTKLEVPKVVKGILKCPNPYCITSNDVEAIPTFKTLTEKPLKMRCEYCETIIDENEIMSQILGANNK | soluble

From the DeepSol protein solubility set
